Test results as given in PMC6629437 (Cell, 2019).

Assays:
[1] = target: H7 HA of A/New York/107/2003 (Influenza A virus A/New York/107/2003 …, UniProt B2LVD7, strain); assay: ELISA
[2] = target: monomeric HA head domain of H5 A/Vietnam/1203/2004 (Influenza A virus A/Vietnam/1203/2004 …, UniProt Q5EP31, strain); assay: HDX-MS
[3] = target: HA head domain of H3 A/Victoria/361/2011 (Influenza A virus A/Victoria/361/2011 …, UniProt A0A097PF39, strain); assay: BLI
[4] = target: T1, HA head domain of H1 A/Solomon Islands/3/2006 (Influenza A virus A/Solomon …, strain); assay: BLI
T1 chain: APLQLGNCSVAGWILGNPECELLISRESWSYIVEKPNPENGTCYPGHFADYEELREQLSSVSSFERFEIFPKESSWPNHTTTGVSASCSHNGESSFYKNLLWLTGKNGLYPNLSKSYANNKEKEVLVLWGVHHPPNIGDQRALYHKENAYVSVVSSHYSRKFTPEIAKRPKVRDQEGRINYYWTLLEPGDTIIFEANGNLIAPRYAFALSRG

[5] = target: HA head domain of H7 A/Shanghai/02/2013 (Influenza A virus A/Shanghai/02/2013 …, UniProt R4NN21, strain); assay: BLI
[6] = target: H1 HA of A/California/04/2009, His-tagged soluble HA (competition assay) (Influenza A virus A/California/04/2009 …, UniProt C3W5S1, strain); assay: BLI
[7] = target: HA head domain of H3 A/Hong Kong/1/1968 (Influenza A virus A/Hong Kong/1/1968 …, strain); assay: crystal structure
[8] = target: H1 HA0 trimer of A/California/04/2009 (uncleaved, baculovirus-expressed ectodomain) (influenza A virus A/California/04/2009 …); assay: BLI
[9] = target: H7 HA0 trimer of A/Shanghai/02/2013 (uncleaved, baculovirus-expressed ectodomain) (Influenza A virus A/Shanghai/02/2013 …, UniProt R4NN21, strain); assay: BLI
H1 HA of A/Texas/36/1991 = H1 HA of A/Texas/36/1991 (Influenza A virus A/Texas/36/1991 (H1N1), UniProt Q6WG02, strain); assay: ELISA
[10] = target: H5 HA of A/Indonesia/5/2005 (Influenza A virus A/Indonesia/5/2005 …, UniProt A5A5L7, strain); assay: ELISA

Measured: binding result

B1: FluA-20 IgG (hybridoma-generated) (antibody, V domains shown)
VH: QVQLEESGPGLVKPSETLSLTCSVSGVSVTSDIYYWTWIRQPPGKGLEWIGYIFYNGDTNYNPSLKSRVTMSIDTSKNEFSLRLTSVTAADTAVYFCARGTEDLGYCSSGSCPNHWGQGTLVTVSS
VL: DIVMTQSPSSLSASIGDRVTITCRPSQNIRSFLNWFQHKPGKAPKLLIYAASNLQSGVPSRFSGSGSGTEFTLTIRSLQPEDFATYYCQQSYNTPPTFGQGTKVEIK
binds: [1] | [2] | [3] | [4] | [5] | [6]

B2: rFluA-20 Fab (Fab, V domains shown)
VH: QVQLEESGPGLVKPSETLSLTCSVSGVSVTSDIYYWTWIRQPPGKGLEWIGYIFYNGDTNYNPSLKSRVTMSIDTSKNEFSLRLTSVTAADTAVYFCARGTEDLGYCSSGSCPNHWGQGTLVTVSS
VL: DIVMTQSPSSLSASIGDRVTITCRPSQNIRSFLNWFQHKPGKAPKLLIYAASNLQSGVPSRFSGSGSGTEFTLTIRSLQPEDFATYYCQQSYNTPPTFGQGTKVEIK
binds: [7] | [8] | [9]

B3: rFluA-20 IgG (recombinant FluA-20 IgG) (antibody, V domains shown)
VH: QVQLEESGPGLVKPSETLSLTCSVSGVSVTSDIYYWTWIRQPPGKGLEWIGYIFYNGDTNYNPSLKSRVTMSIDTSKNEFSLRLTSVTAADTAVYFCARGTEDLGYCSSGSCPNHWGQGTLVTVSS
VL: DIVMTQSPSSLSASIGDRVTITCRPSQNIRSFLNWFQHKPGKAPKLLIYAASNLQSGVPSRFSGSGSGTEFTLTIRSLQPEDFATYYCQQSYNTPPTFGQGTKVEIK
binds: [1] | H1 HA of A/Texas/36/1991 | [10]
